Data on 1 substance can be found in paper PMC4750872.

The assay addresses gankyrin (UniProt O75832). In words: ITC. On the technique in general: Isothermal titration calorimetry measures the heat released or taken up as one component is titrated into another.
UniProt O75832, sequence (O75832 whole entry): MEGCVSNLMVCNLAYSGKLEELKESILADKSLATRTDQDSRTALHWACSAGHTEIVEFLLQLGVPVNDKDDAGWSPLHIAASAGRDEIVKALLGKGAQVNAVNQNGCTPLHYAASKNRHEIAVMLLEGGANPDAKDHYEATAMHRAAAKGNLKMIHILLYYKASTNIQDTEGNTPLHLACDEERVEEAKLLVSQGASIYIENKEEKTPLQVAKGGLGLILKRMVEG

FtsH-S6 ATPase had a dH of -29 kcal/mol.
